Reference: PMC5411485

Tested on: ScNsrR wild type, [4Fe-4S] holo (Streptomyces coelicolor)
Experiment: EMSA
Conditions: EMSA: 10 mM Tris, 54 mM KCl, 0.3% glycerol, 1.32 mM glutathione, pH 7.2, on ice ~10 min; 5% PAGE in 1x TBE

For hmpA1 promoter probe, the K half ([4Fe-4S] protein:DNA ratio) was < 2.
